# Source: patent publication US20170088605A1 (Novartis, published 2017)
# T1: BKV serotype I infectious virus (VP1) (BK virus serotype I, UniProt P03088 1-362)
# T1 sequence (looked up): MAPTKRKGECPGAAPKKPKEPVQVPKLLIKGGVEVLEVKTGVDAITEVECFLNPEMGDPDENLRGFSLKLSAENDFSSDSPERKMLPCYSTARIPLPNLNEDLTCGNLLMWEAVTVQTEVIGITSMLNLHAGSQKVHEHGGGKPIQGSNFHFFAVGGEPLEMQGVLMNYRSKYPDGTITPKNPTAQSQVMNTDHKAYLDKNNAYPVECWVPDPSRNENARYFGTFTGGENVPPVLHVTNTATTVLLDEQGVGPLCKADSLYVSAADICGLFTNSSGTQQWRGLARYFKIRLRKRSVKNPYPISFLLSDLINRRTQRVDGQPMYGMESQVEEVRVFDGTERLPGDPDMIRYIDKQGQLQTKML
# Columns and labels:
# [1] = target: JCV infectious virus, isolates Mad-1 and Mad-4 (VP1) (JC virus); test: cell-based or functional assay
# [2] = target: T2, JCV VLP (consensus) (JC virus, UniProt P03089 1-354); test: ELISA on plates coated with JCV VLPs, OD 450 nm
# T2 construct: also called JCV VLPs; JC virus VLPs
# [3] = target: T2, JCV VLP (consensus); test: ELISA on coated JCV VLPs
# [4] = target: T3, BKV serotype II VP1 pentamer (BK virus serotype II, UniProt P14996 30-297); test: SET (solution equilibrium titration) on VP1 pentamers
# T3 construct: also called serotype II pentamers
# [5] = target: T4, BKV serotype III VP1 pentamer (BK virus serotype III, UniProt P14996 30-297); test: as above
# T4 construct: also called serotype III pentamers
# [6] = target: T5, BKV serotype IV VP1 pentamer (BK virus serotype IV, UniProt P14996 30-297); test: as above
# T5 construct: also called serotype IV pentamers
# [7] = target: T6, BKV serotype I VP1 pentamer (BK virus serotype I, UniProt P03088 30-297); test: as above
# T6 construct: also called serotype I pentamers; BKV-VP1 serotype I pentameric protein
# [8] = target: BKV serotype II chimeric infectious virus (VP1 of isolate SB) (BK virus serotype II); test: cell-based or functional assay
# [9] = target: T1, BKV serotype I infectious virus (VP1); test: cell-based or functional assay
# [10] = target: BKV serotype IV chimeric infectious virus (VP1 of strain ITA-4) (BK virus serotype IV); test: cell-based or functional assay
# [11] = target: BKV serotype III chimeric infectious virus (VP1 of isolate AS) (BK virus serotype III); test: cell-based or functional assay
binder,measurement,setting,value
"2077-4-1 (antibody, V domains shown) VH: EVQLQQSGPELVKPGASMKISCKASGYSFTGYTMNWVKQSHGENLEWIGLFNPYNGGTRYNQKFKGKATLTVDKSSSTAYMELLSLTSEDSAVYYCARLRNYGIGDDFFDYWGQGTTLTVSS VL: DIVMTQSHKFMSTSVGDRVSITCKASQDVGTAVAWYQQKPGQSPKLLIYWASTRHTGVPDRFTGSGSGTDFTLTISNVQSEDLTDYFCQQYSNYPYTFGGGTKLEIK",neutralization EC50,[1],0.138 µg/mL
same,neutralization EC90,[1],3.06 µg/mL
same,EC50 (read off the curve),[2],~30 pM
same,IC50,[3],34 pM
"2077-10-1 (antibody, V domains shown) VH: EVQLQQSGPELVKPGASMKISCKASGYSFTGYTMNWMKQGHGKNLEWIGLFNPYNGGPNYNQKFKGKATLTVDKSSSTAYMELLSLTSEDSAVYYCARLRYYGIGDDFFDYWGQGTTLTVSS VL: DIVMTQSHKFMSTSVGDRVSITCKASQDVGTAVAWYQQKPGQSPKLLIYWASTRHTGVPDRFTGSGSGTDFTLTITNVQSEDLTDYFCQQYSSYPYTFGGGTKLEIK",neutralization EC50,[1],1.49 µg/mL
same,neutralization EC90,[1],> 10 µg/mL
same,EC50 (read off the curve),[2],~90 pM
same,IC50,[3],100 pM
"2077-7-5 (antibody, V domains shown) VH: EVQLQQSGPELVKPGASMKISCKASGYSFTGYTMNWVKQSHGKNLEWIGLFNPYNGGINYNQKFKGKATLTVDKSSSTAYMELLSLTSEDSAVYYCARLRYYGIGDDFFDYWGQGTSLTVSS VL: DIVMTQSHKFMSTSVGDRVSITCKASRDVGTAVAWYQQKPGQSPKLLIYWASTRHTGVPDRFTGSGSGTDFTLTISNVQSEDLADYFCQQYSNYPYTFGGGTKLEMK",neutralization EC50,[1],0.097 µg/mL
same,neutralization EC90,[1],1.1 µg/mL
same,EC50 (read off the curve),[2],~600 pM
same,IC50,[3],651 pM
"2077-28-2 (antibody, V domains shown) VH: EVQLQQSGPELVKPGASMKISCKASGYSFTGYTMNWVKQSHGKNLEWIGLFNPYNGGATYNQRFKGKATLTVDKSSSTAYMDLLSLTSEDSAVYYCTRLRKYGIGDDFFDYWGQGTTLTVSS VL: DIVMTQSHKFMSTSVGDRVSITCKASQDVGTAVAWYQQKPGQSPKLLIYWASTRHTGVPDRFTGSGSGTDFTLTISNVQSEDLADYFCQQYSTYTYTFGGGTKLEIK",neutralization EC50,[1],0.347 µg/mL
same,neutralization EC90,[1],6.82 µg/mL
same,EC50 (read off the curve),[2],~90 pM
same,IC50,[3],88 pM
"2077-26-1 (antibody, V domains shown) VH: EVQLQQSGPDLVKPGASMKLSCKASGYSFTGYTMNWVKQSHGKNLEWIGLFNPYNGGPSYNQKFKGKATLTVDKSSSTAYMELLSLTPEDSAVYYCARLRYYGIGDDFFDYWGQGTTLTVSS VL: DIVMTQSHKFMSTSVGDRVSITCKASQDVGTAVAWYQEKPGQSPKLLIYWASTRHTGVPDRFTGSGSGTDFTLTISNVQSEDLAYYFCQQYSNYPYTFGGGTKLEIK",neutralization EC50,[1],0.702 µg/mL
same,neutralization EC90,[1],3.2 µg/mL
same,EC50 (read off the curve),[2],~60 pM
same,IC50,[3],67 pM
"P8D11A (antibody, V domains shown) VH: QVQLVESGGTLVQPGGSLRLSCAASGFTFSNYWMTWVRQAPGKGLEWVANIKKDGSEKYYVDSVRGRFTISRDNAKNSLFLQMNSLRPEDTAVYFCATVRSGRYFALDDWGQGTLVTVSS VL: QSVLTQPPSVSVAPGKTARITCGGDNIGSRPVHWYQQKPGQAPILVVYDDSNRPSGIPERFSGSNSGNTATLTISRVEAGDEADYYCQVWSSSTDHPFGGGTKVTVLG",Kd,[4],2.5 pM
same,Kd,[5],3.7 pM
same,Kd,[6],2.9 pM
same,Kd,[7],4.4 pM
same,neutralization EC50,[8],0.029 µg/mL
same,neutralization EC90,[8],8.68 µg/mL
same,neutralization EC50,[9],0.005 µg/mL
same,neutralization EC90,[9],0.19 µg/mL
same,neutralization EC50,[10],0.015 µg/mL
same,neutralization EC90,[10],0.064 µg/mL
same,neutralization EC50,[11],0.01 µg/mL
same,neutralization EC90,[11],0.59 µg/mL
P8D11D (antibody) heavy: not shown light: QSVLTQPPSVSVAPGKTARITCGGDNIGSRPVHWYQQKPGQAPILVVYDDSNRPSGIPERFSGSNSGNTATLTISRVEAGDEADYYCQVWSSSTDHPFGGGTKVTVLGQPKAAPSVTLFPPSSEELQANKATLVCLISDFYPGAVTVAWKADSSPVKAGVETTTPSKQSNNKYAASSYLSLTPEQWKSHRSYSCQVTHEGSTVEKTVAPTECS,Kd,[4],2 pM
same,Kd,[5],5 pM
same,Kd,[6],3.2 pM
same,Kd,[7],5 pM
same,neutralization EC50,[8],0.161 µg/mL
same,neutralization EC90,[8],1.64 µg/mL
same,neutralization EC50,[9],0.034 µg/mL
same,neutralization EC90,[9],0.15 µg/mL
same,neutralization EC50,[10],0.003 µg/mL
same,neutralization EC90,[10],0.063 µg/mL
same,neutralization EC50,[11],0.185 µg/mL
same,neutralization EC90,[11],0.87 µg/mL
"P8D11C (antibody, V domains shown) VH: QVQLVESGGTLVQPGGSLRLSCAASGFTFQNYWMTWVRQAPGKGLEWVANIKKDGSEKYYVDSVRGRFTISRDNAKNSLFLQMNSLRPEDTAVYFCATVRSGRYFALDDWGQGTLVTVSS VL: QSVLTQPPSVSVAPGKTARITCGGDNIGSRPVHWYQQKPGQAPILVVYDDSNRPSGIPERFSGSNSGNTATLTISRVEAGDEADYYCQVWSSSTDHPFGGGTKVTVLG",Kd,[4],2.7 pM
same,Kd,[5],4.8 pM
same,Kd,[6],2.7 pM
same,Kd,[7],4.5 pM
same,neutralization EC50,[8],0.18 µg/mL
same,neutralization EC90,[8],0.5 µg/mL
same,neutralization EC50,[9],0.0003 µg/mL
same,neutralization EC90,[9],0.34 µg/mL
same,neutralization EC50,[10],0.005 µg/mL
same,neutralization EC90,[10],0.54 µg/mL
same,neutralization EC50,[11],0.049 µg/mL
same,neutralization EC90,[11],0.51 µg/mL
P8D11E (antibody) heavy: not shown light: QSVLTQPPSVSVAPGKTARITCGGDNIGSRPVHWYQQKPGQAPILVVYDDSNRPSGIPERFSGSNSGNTATLTISRVEAGDEADYYCQVWSSSTDHPFGGGTKVTVLGQPKAAPSVTLFPPSSEELQANKATLVCLISDFYPGAVTVAWKADSSPVKAGVETTTPSKQSNNKYAASSYLSLTPEQWKSHRSYSCQVTHEGSTVEKTVAPTECS,Kd,[4],1.7 pM
same,Kd,[5],6 pM
same,Kd,[6],2.7 pM
same,Kd,[7],4.3 pM
same,neutralization EC50,[8],0.144 µg/mL
same,neutralization EC90,[8],2.52 µg/mL
same,neutralization EC50,[9],0.032 µg/mL
same,neutralization EC90,[9],0.11 µg/mL
same,neutralization EC50,[10],0.002 µg/mL
same,neutralization EC90,[10],0.087 µg/mL
same,neutralization EC50,[11],0.236 µg/mL
same,neutralization EC90,[11],0.9 µg/mL
"P8D11B (antibody, V domains shown) VH: QVQLVESGGTLVQPGGSLRLSCAASGFTFKNYWMTWVRQAPGKGLEWVANIKKDGSEKYYVDSVRGRFTISRDNAKNSLFLQMNSLRPEDTAVYFCATVRSGRYFALDDWGQGTLVTVSS VL: QSVLTQPPSVSVAPGKTARITCGGDNIGSRPVHWYQQKPGQAPILVVYDDSNRPSGIPERFSGSNSGNTATLTISRVEAGDEADYYCQVWSSSTDHPFGGGTKVTVLG",Kd,[4],1.8 pM
same,Kd,[5],2.5 pM
same,Kd,[6],2.9 pM
same,Kd,[7],3.8 pM
same,neutralization EC50,[8],0.088 µg/mL
same,neutralization EC90,[8],1.93 µg/mL
same,neutralization EC50,[9],0.003 µg/mL
same,neutralization EC90,[9],0.3 µg/mL
same,neutralization EC50,[10],0.005 µg/mL
same,neutralization EC90,[10],0.54 µg/mL
same,neutralization EC50,[11],0.014 µg/mL
same,neutralization EC90,[11],0.5 µg/mL
